Results from patent US20160152728A1 (AFFEMED, published 2016).

Key:
[1] = biological target: T1, EGFRvIII expressed on cells (CHO^EGFRvIII, F98^EGFRvIII) (UniProt P00533 25-1210); assay: flow cytometry on F98^EGFRvIII cells; scFv detected with anti-His followed by FITC-conj. goat anti-mouse IgG, mean fluorescence intensity
T1 construct: whole, on cells; the vIII deletion must be applied; also called deletion mutant EGFRvIII
Experimental: (§1) After a second washing cycle, the cells were incubated with 0.1 mL of 15 μg/mL FITC-conjugated goat anti-mouse IgG antibodies under the same conditions as before. As a control, cells were incubated with the anti-His IgG 13/45/31 followed by the FITC-conjugated goat anti-mouse IgG antibodies without scFvs. The cells were then washed again and resuspended in 0.2 mL of FACS buffer containing 2 μg/mL propidium iodide in order to exclude dead cells. The fluorescence of 1×10⁴ living cells was measured using a Beckman-Coulter FC500 MPL flow cytometer using the MXP software (Beckman-Coulter, Krefeld, Germany) or a Millipore Guava EasyCyte flow cytometer using the Incyte software (Merck Millipore, Schwalbach, Germany). Mean fluorescence intensities of the cell samples were calculated using CXP software (Beckman-Coulter, Krefeld, Germany) or Incyte software (Merck Millipore, Schwalbach, Germany).
(§2) In case of analysis with Beckman-Coulter FC500 MPL flow cytometer 0.5×10⁶ cells/staining and in case of Millipore Guava EasyCyte flow cytometer only 0.25×10⁶ cells/staining were used.

[2] = biological target: T2, wild type EGFR expressed on cells (CHO^EGFR, F98^EGFR) (human, UniProt P00533 25-1210); assay: flow cytometry on F98^EGFR cells; scFv detected with anti-His followed by FITC-conj. goat anti-mouse IgG
T2 construct: whole, on cells; also called native EGFR; EGFRwt
Experimental: as §1, §2

[3] = biological target: T1, EGFRvIII expressed on cells …; assay: flow cytometry on CHO^EGFRvIII cells; scFv detected with anti-His followed by FITC-conj. goat anti-mouse IgG, mean fluorescence intensity
Experimental: as §1, §2

[4] = biological target: EGFRvIII-Fc fusion antigen (human) (UniProt P00533); assay: ELISA on coated EGFRvIII-Fc; TandAb detected with Protein L-HRP, Abs(450nm) [EGFRvIII binding]
[5] = biological target: T1, EGFRvIII expressed on cells …; assay: cell-based or functional assay
[6] = biological target: EGFRvIII-Fc fusion antigen (human, UniProt P00533 25-645); assay: ELISA on coated EGFRvIII-Fc; TandAb detected with Protein L-HRP, Abs(450nm) [EGFRvIII binding]
[7] = biological target: CD3γε recombinant antigen (UniProt P09693); assay: ELISA on coated CD3γε antigen; TandAb detected with Protein L-HRP, Abs(450nm) [CD3γε binding]
Chain of CD3γε recombinant antigen (P09693 23-116, chain 1 of 2): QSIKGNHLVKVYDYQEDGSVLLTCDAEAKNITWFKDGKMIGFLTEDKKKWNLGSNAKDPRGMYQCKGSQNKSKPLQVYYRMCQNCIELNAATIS
Chain of CD3γε recombinant antigen (P07766 23-126, chain 2 of 2, further chain): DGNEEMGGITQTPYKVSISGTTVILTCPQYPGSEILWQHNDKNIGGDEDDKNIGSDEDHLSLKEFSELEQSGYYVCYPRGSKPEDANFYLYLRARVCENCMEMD

| EC50 (read off the curve) [4] [nM] | EC50 (read off the curve) [6] [nM] | Binder | Cytotoxic potency EC50 [5] [nM] | cytotoxicity improvement factor relative to parental TandAb [5] [fold] | other results |
| --- | --- | --- | --- | --- | --- |
| – | ~4 | TandAb EGFRvIII(ABC479)/CD3(v64) (bispecific antibody, also called domain order (i) VL^CD3-VH^EGFRvIII-VL^EGFRvIII-VH^CD3) tandem diabody polypeptide (homodimer): DIQMTQSPSSLSASVGDRVTITCRSSTGAVTTSNYANWVQQKPGKAPKALIGGTNKRAPGVPSRFSGSLIGDKATLTISSLQPEDFATYYCALWYSNLWVFGQGTKVEIKQSGAEVKKPGEVQLVESLKISCKGSGYDFSSYWIGWVRQMPGKGLEWMGIIYPGDSDTIYSPSFQGQVTISADKSISTAYLQWSSLKASDTAMYYCARLGSSWTNDAFDIWGQGTLVTVSSSYELTQPPSVSVSPGQTARITCSGAALPEQYAYWYQQKPGQAPVLVIYKDSERPSGIPERFSGSSSGTTVTLTISGVQAEDEADYYCQSVDSSGTFYVFGGGTKLTVLEVQLVESGGGLVQPGGSLRLSCAASGFTFSTYAMNWVRQAPGKGLEWVGRIRSKYNNYATYYADSVKDRFTISRDDSKNSLYLQMNSLKTEDTAVYYCARHGNFGNSYVSYFAYWGQGTLVTVSS | – | – | – |
| – | ~1 | TandAb EGFRvIII(ABC478)/CD3(v64) (bispecific antibody, also called domain order (i) VL^CD3-VH^EGFRvIII-VL^EGFRvIII-VH^CD3) tandem diabody polypeptide (homodimer): DIQMTQSPSSLSASVGDRVTITCRSSTGAVTTSNYANWVQQKPGKAPKALIGGTNKRAPGVPSRFSGSLIGDKATLTISSLQPEDFATYYCALWYSNLWVFGQGTKVEIKEVQLVQSGAEVKKPGESLKISCKGSGYSFNSYWIGWVRQMPGKGLEWMGIIYPGDEDTRYSPSFQGQVTISADKSISTAYLQWSSLKASDTAMYYCARLGSSWTNDAFDIWGQGTLVTVSSSYELTQPPSVSVSPGQTARITCSGDALPKQYAYWYQQKPGQAPVLVIYKDTERPSGIPERFSGSSSGTTVTLTISGVQAEDEADYYCQSVDPSGTYVVFGGGTKLTVLEVQLVESGGGLVQPGGSLRLSCAASGFTFSTYAMNWVRQAPGKGLEWVGRIRSKYNNYATYYADSVKDRFTISRDDSKNSLYLQMNSLKTEDTAVYYCARHGNFGNSYVSYFAYWGQGTLVTVSS | – | – | – |

Continued, binder first:

| Binder | EC50 (read off the curve) [4] [nM] | EC50 (read off the curve) [6] [nM] | Cytotoxic potency EC50 [5] [nM] | cytotoxicity improvement factor relative to parental TandAb [5] [fold] | other results |
| --- | --- | --- | --- | --- | --- |
| Li3G30 scFv (parental) (scFv, V domains shown, One-chain scFv, His-tagged; also called parental scFv; starting clone Li3G30) VH: EVQLVQSGAEVKKPGESLKISCKGSGYSFTSYWIGWVRQMPGKGLEWMGIIYPGDSDTRYSPSFQGQVTISADKSISTAYLQWSSLKASDTAMYYCARLGSSWTNDAFDIWGQGTMVTVSS VL: SYELTQPPSVSVSPGQTARITCSGDALPKQYAYWYQQKPGQAPVLVIYKDSERPSGIPERFSGSSSGTTVTLTISGVQAEDEADYYCQSADSSGTPLIVFGTGTKLTVL | – | – | – | – | EC50 (read off the curve) [1]: ~6 nM; binding result [2]: no binding (tested: about 3300 nM); EC50 (read off the curve) [3]: ~5 nM |
| EGFRvIII/CD3 TandAb with EGFRvIII binding domain ABC471, domain order (i) VL^CD3(v64)-VH^EGFRvIII-VL^EGFRvIII-VH^CD3(v64) (bispecific antibody, part only; not given: CD3 v64 domain and linkers, not shown: small tags and cut ends) chain, part: EVQLVQSGAEVKKPGESLKISCKGSGYSFNSYWIGWVRQMPGKGLEWMGIIYPGDSANRYSPSFQGQVTISADKSISTAYLQWSSLKASDTAMYYCARLGSSWTNDAFDIWGQGTLVTVSSSYELTQPPSVSVSPGQTARITCSGDYLPKQYAYWYQQKPGQAPVLVIYKDTERPSGIPERFSGSSSGTTVTLTISGVQAEDEADYYCQSVDSSHPSVVFGGGTKLTVL | 0.8 | – | 1.5 | 18.2 | – |
| EGFRvIII/CD3 TandAb with EGFRvIII binding domain ABC472, domain order (i) VL^CD3(v64)-VH^EGFRvIII-VL^EGFRvIII-VH^CD3(v64) (bispecific antibody, part only; not given: CD3 v64 domain and linkers, not shown: small tags and cut ends) chain, part: EVQLVQSGAEVKKPGESLKISCKGSGYSFGYYWIGWVRQMPGKGLEWMGIIYPGDSHTRYSPSFQGQVTISADKSISTAYLQWSSLKASDTAMYYCARLGSSWTNDAFDIWGQGTLVTVSSSYELTQPPSVSVSPGQTARITCSGDALPKQYAYWYQQKPGQAPVLVIYKDTERPSGIPERFSGSSSGTTVTLTISGVQAEDEADYYCQSVDSSGTQVVFGGGTKLTVL | 0.8 | – | 4.2 | 6.5 | – |
| EGFRvIII/CD3 TandAb with EGFRvIII binding domain ABC470, domain order (iv) VH^EGFRvIII-VL^CD3-VH^CD3-VL^EGFRvIII (bispecific antibody, part only; not given: CD3 domain and linkers, not shown: small tags and cut ends) chain, part: EVQLVQSGAEVKKPGESLKISCKGSGYSFNSYWIGWVRQMPGKGLEWMGIIYPGDSDTRYSPSFQGQVTISADKSISTAYLQWSSLKASDTAMYYCARLGSSWTNDAFDIWGQGTLVTVSSSYELTQPPSVSVSPGQTARITCSGDALDKQYAYWYQQKPGQAPVLVIYKDSERPSGIPERFSGSSSGTTVTLTISGVQAEDEADYYCQSVDSSETYVVFGGGTKLTVL | – | 0.9 | 3.8 | 56.9 | – |
| EGFRvIII/CD3 TandAb with EGFRvIII binding domain ABC470, domain order (i) VL^CD3(v64)-VH^EGFRvIII-VL^EGFRvIII-VH^CD3(v64) (bispecific antibody, part only; not given: CD3 v64 domain and linkers, not shown: small tags and cut ends) chain, part: EVQLVQSGAEVKKPGESLKISCKGSGYSFNSYWIGWVRQMPGKGLEWMGIIYPGDSDTRYSPSFQGQVTISADKSISTAYLQWSSLKASDTAMYYCARLGSSWTNDAFDIWGQGTLVTVSSSYELTQPPSVSVSPGQTARITCSGDALDKQYAYWYQQKPGQAPVLVIYKDSERPSGIPERFSGSSSGTTVTLTISGVQAEDEADYYCQSVDSSETYVVFGGGTKLTVL | 0.7 | – | 4 | 6.8 | – |
| EGFRvIII/CD3 TandAb with EGFRvIII binding domain ABC471, domain order (iv) VH^EGFRvIII-VL^CD3-VH^CD3-VL^EGFRvIII (bispecific antibody, part only; not given: CD3 domain and linkers, not shown: small tags and cut ends) chain, part: EVQLVQSGAEVKKPGESLKISCKGSGYSFNSYWIGWVRQMPGKGLEWMGIIYPGDSANRYSPSFQGQVTISADKSISTAYLQWSSLKASDTAMYYCARLGSSWTNDAFDIWGQGTLVTVSSSYELTQPPSVSVSPGQTARITCSGDYLPKQYAYWYQQKPGQAPVLVIYKDTERPSGIPERFSGSSSGTTVTLTISGVQAEDEADYYCQSVDSSHPSVVFGGGTKLTVL | – | 0.6 | 3.1 | 69.8 | – |
| EGFRvIII/CD3 TandAb with EGFRvIII binding domain ABC469, domain order (i) VL^CD3(v64)-VH^EGFRvIII-VL^EGFRvIII-VH^CD3(v64) (bispecific antibody, part only; not given: CD3 v64 domain and linkers, not shown: small tags and cut ends) chain, part: EVQLVQSGAEVKKPGESLKISCKGSGYSFNSYWIGWVRQMPGKGLEWMGIIYPGDSDTRYSPSFQGQVTISADKSISTAYLQWSSLKASDTAMYYCARLGSSWTNDAFDIWGQGTLVTVSSLTQPPSYESVSVSPGQTARITCSGDTLPKQYAYWYQQKPGQAPVLVIYKDSERPSGIPERFSGSSSGTTVTLTISGVQAEDEADYYCQSVDVSGTYVVFGGGTKLTVL | – | 1 | 11 | 2.5 | – |
| EGFRvIII/CD3 TandAb with EGFRvIII binding domain ABC469, domain order (iv) VH^EGFRvIII-VL^CD3-VH^CD3-VL^EGFRvIII (bispecific antibody, part only; not given: CD3 domain and linkers, not shown: small tags and cut ends) chain, part: EVQLVQSGAEVKKPGESLKISCKGSGYSFNSYWIGWVRQMPGKGLEWMGIIYPGDSDTRYSPSFQGQVTISADKSISTAYLQWSSLKASDTAMYYCARLGSSWTNDAFDIWGQGTLVTVSSLTQPPSYESVSVSPGQTARITCSGDTLPKQYAYWYQQKPGQAPVLVIYKDSERPSGIPERFSGSSSGTTVTLTISGVQAEDEADYYCQSVDVSGTYVVFGGGTKLTVL | – | 0.6 | 6.5 | 33.3 | EC50 (read off the curve) [7]: 7 nM |
